Entries after “also recorded” stand apart in the source; their conditions may differ.
System: Mycobacterium tuberculosis (H37Rv, clinical drug-resistant strain94120)
Type: cell-based

B1: Colicin Ia (protein, UniProt P06716 1-626, looked up)
Colicin-Ia: MSDPVRITNPGAESLGYDSDGHEIMAVDIYVNPPRVDVFHGTPPAWSSFGNKTIWGGNEWVDDSPTRSDIEKRDKEITAYKNTLSAQQKENENKRTEAGKRLSAAIAAREKDENTLKTLRAGNADAADITRQEFRLLQAELREYGFRTEIAGYDALRLHTESRMLFADADSLRISPREARSLIEQAEKRQKDAQNADKKAADMLAEYERRKGILDTRLSELEKNGGAALAVLDAQQARLLGQQTRNDRAISEARNKLSSVTESLNTARNALTRAEQQLTQQKNTPDGKTIVSPEKFPGRSSTNHSIVVSGDPRFAGTIKITTSAVIDNRANLNYLLSHSGLDYKRNILNDRNPVVTEDVEGDKKIYNAEVAEWDKLRQRLLDARNKITSAESAVNSARNNLSARTNEQKHANDALNALLKEKENIRNQLSGINQKIAEEKRKQDELKATKDAINFTTEFLKSVSEKYGAKAEQLAREMAGQAKGKKIRNVEEALKTYEKYRADINKKINAKDRAAIAAALESVKLSDISSNLNRFSRGLGYAGKFTSLADWITEFGKAVRTENWRPLFVKTETIIAGNAATALVALVFSILTGSALGIIGYGLLMAVTGALIDESLVEKANKFWGI
notes: Wild-type bacterial toxin secreted by E. coli forming ion channels
  growth of bacteria lawn, strain H37Rv, re-culture test: quantity of cells growth; also recorded: a mass of bacteria lawn growing

B2: PMC-AM1: Fusion of antibody mimetic AM1 (VHCDR1-VHFR2-VLCDR3, Seq ID No.2) to C-terminus of Colicin Ia; Seq ID No.6 (protein)
chain: SDPVRITNPGAESLGYDSDGHEIMAVDIYVNPPRVDVFHGTPPAWSSFGNKTIWGGNEWVDDSPTRSDIEKRDKEITAYKNTLSAQQKENENKRTEAGKRLSAAIAAREKDENTLKTLRAGNADAADITRQEFRLLQAELREYGFRTEIAGYDALRLHTESRMLFADADSLRISPREARSLIEQAEKRQKDAQNADKKAADMLAEYERRKGILDTRLSELEKNGGAALAVLDAQQARLLGQQTRNDRAISEARNKLSSVTESLNTARNALTRAEQQLTQQKNTPDGKTIVSPEKFPGRSSTNHSIVVSGDPRFAGTIKITTSAVIDNRANLNYLLSHSGLDYKRNILNDRNPVVTEDVEGDKKIYNAEVAEWDKLRQRLLDARNKITSAESAVNSARNNLSARTNEQKHANDALNALLKEKENIRNQLSGINQKIAEEKRKQDELKATKDAINFTTEFLKSVSEKYGAKAEQLAREMAGQAKGKKIRNVEEALKTYEKYRADINKKINAKDRAAIAAALESVKLSDISSNLNRFSRGLGYAGKFTSLADWITEFGKAVRTENWRPLFVKTETIIAGNAATALVALVFSILTGSALGIIGYGLLMAVTGALIDESLVEKANKFWGISYWLHWIKQRPGQGLWIGSQSTHVPRT
modifications: The amino acid sequence of antibiotic PMC-AM1
  bacteriostatic or bactericidal role: bactericidal effect rather than simply antibacterial effect
  growth of bacteria lawn, strain94120: no cell growth; also recorded: no growth of bacteria lawn
  growth of bacteria lawn, strain H37Rv, re-culture test: still no cell growth; also recorded: always no growth of bacteria lawn

Reference: patent publication US9073989B2, “Antibiotic comprising an antibody mimetic, its preparation methods and uses thereof” (PROTEIN DESIGN LAB, LTD, priority 2011, dated 2015)
